Reference: the DeepSol protein solubility set

Assay: soluble on expression in E. coli; label from the status in PepcDB or PDB records

| Sequence | soluble on expression in E. coli |
| --- | --- |
| MGSDKIHHHHHHMTNQNYLAKTTNKQYIVKFFGKGTEKLINRQDEKYNLELLKDLGLDVKNYLFDIEAGIKVNEYIESAITLDSTSIKTKFDKITPILQTIHTSAKELRGEFAPFEEIKKYESLIEEQIPYANYESVRNAVFSLEKRLADLGVDRKSCHIDLVPENFIESPQGRLYLIDWEYSSMNDPMWDLAALFLESEFTSQEEETFLSHYESDQTPVSHEKIAIYKILQDTIWSLWTVYKEEQGEDFGDYGVNRYQRAIKGLASYGGSDEK | not soluble |
| MSLEAIVFDRSEPENVSVKVLDQLLLPYTTKYVPIHTIDDGYSVIKSMQVRGAPAIAIVGSLSVLTEVQLIKHNPTSDVATLYSLVNWESTKTVLNKRLDFLLSSRPTAVNLSNSLVEIKNILKSSSDLKAFDGSLYNYVCELIDEDLANNMKMGDNGAKYLIDVLQKDGFKDEFAVLTICNTGSLATSGYGTALGVIRSLWKDSLAKTDK | soluble |
| MDLNFKELAEAKKDAILKDLEELIAIDSSEDLENATEEYPVGKGPVDAMTKFLSFAKRDGFDTENFANYAGRVNFGAGDKRLGIIGHMDVVPAGEGWTRDPFKMEIDEEGRIYGRGSADDKGPSLTAYYGMLLLKEAGFKPKKKIDFVLGTNEETNWVGIDYYLKHEPTPDIVFSPDAEYPIINGEQGIFTLEFSFKNDDTKGDYVLDKFKAGIATNVTPQVTRATISGPDLEAVKLAYESFLADKELDGSFEINDESADIVLIGQGAHASAPQVGKNSATFLALFLDQYAFAGRDKNFLHFLAEVEHEDFYGKKLGIFHHDDLMGDLASSPSMFDYEHAGKASLLNNVRYPQGTDPDTMIKQVLDKFSGILDVTYNGFEEPHYVPGSDPMVQTLLKVYEKQTGKPGHEVVIGGGTYGRLFERGVAFGAQPENGPMVMHAANEFMMLDDLILSIAIYAEAIYELTKDEEL | soluble |
| MMCTKEFDYLNEANQATRFQNVWLPGRYTDCNHMKRKQEEVNGEENSTWRSSSSFQ | not soluble |
| MDGDFRTSFVREPAGLRPYPALVLNADYRPLSYYPLSLWPWQEAIKAAFLDRVSIVAEYDQVVRSQRAALRIPSVVVLKEFVSPQKRVAFTRFNLFLRDEFRCQYCGAKGDLTFDHVVPRARGGVTSWQNVVAACSPCNLHKGSKTLKQAGMRLARIPREPTPAEMQRHGQRFPPNHLHDSWLDYLYWDAELEALEHHHHHH | not soluble |
| MIYSVGNRLGNKLTGIEKAMINRHNLFKNHSITSKLIFASWSPRLHFNASLFQIEDDDILSLYDVLQDSINIKSIHKDWITHWTKECNYTLKFIENTNDIKIYEKSNYRMYVHFNDSNYQHLDYINHFDVNQRKIRRDLYDSRGFLSCSRTLTTNQKVVCEHYYTPEGTIKFQKFFNPELENSQSQLIIYNTDSQLKYFNNDQELLAFAIEKLYKNGDIFLSDKNINTAPIFNNTSETIPVLAVLHSTHVKNIDMVYESDIKNTYKHVFNNLNRYSGIIVSTKQQQLDISARINNEIPVHTIPVGYIDEHFTNLKRNNHSINNNKIISVARYSPEKQLNHQIELVSKLIKEFPNIQLHLYGFGKEEEKYKQLITEYNLENNVFLRGFRRNLSAEIQDAYMSLITSNMEGFNLGLLETITEGIPPVGYNSKYGPSELILNNENGYLINKNDKDELYNRVRNLLLDKTLRDTFSQECIKHSKAFSSKIVMKLWEDRFSTINSSYE | not soluble |
| MGSDKIHHHHHHEKAVTHSESKEFKPETVKIGEDGELNIVPLYAPYQTYLKASLKADTSETDSKNYAEYVLRYIDKIGEKENFDPTTLETFFMLKATAYEQDMLNQTNELMKQHDEIKDIITKNYSASYEALPKKKATIFIAPSNLEFWSMTDPLAGVSGAAFQDSIIIQLNPNFDKEVLAYTIAHEYHHLVLNDTPELSRIDTSLDSVIFEGKADAFADQIVTDVSPPWNIPMDDTTKKHVARLIGNGEADYQEITMGNTEKDIPLWSRYSLGRDILTHHLKANPDLSIKTWTYEENHAILNGYKYQKLLE | not soluble |
| MTKAKRTYEPWYWANEHTRLYMRRGYLLPGVSVEERVKEIAQRAEALTKVEGFGRKFLEYMARGWYSLATPIWANYGLRRGLPISCYGTYVEDDTASILRAVAEVGMMSKQGGGTSLYLGRLRPRGAPIRDNGESNGSFAFASLFDRVIEVFNQGSTRRGQCAAYLDVEHPDLEEWLSIQREHSPVQSLFWGVSVGDRWLEEMIAGDGEKRARWAKILKSRAEVGIPYLFFRDNANQKAPEVFRALGKTIWASNLCTEIMLPSSEEESFVCCLSSLNLLHYEEWKDTDAVETLVIFLDSVLDDFIEKAEGIPYMERAVRFAKRYRAIGLGVLGWHSYLQSQRIPLESPEAFRRNAEIFKTIRERAEEASRWLRKRHPEDELAGVGELKERRNATLLAIAPTKSSAFILGQVSPSIEPYTSNYYLKDLQKARVPFKNPFLEEVLREKGKDEEKVWRSILEHNGSVQHLDFLTDEEKAVFKTFAEISQMTLVNLAASRQKHIDQGQSLNLVIHPEAPPRDVNALVLHAWRSGLKALYYQFSQSVAQAYSRDLLLSCQACEG | soluble |
| MGSDKIHHHHHHMRLILSQCLANLSVRFLMNRNSYNKIAHLWNVARNGFFGREREYLDAILSVAPIGSTILDLGCGTGRPMAEYIVSRGRCVLGVDQSEEMLRLARQKLPHEQWVLSSIESYEPVEGYHGALLWDSLFHIRRTEHELIVSKVVRGLPSGGRLMLTVGGSAHPEFTDFMYGEEFYYDSNTPQETETFLQRLSCRMVIGEYMNLPDGGRDKGRYAIVAEKI | not soluble |
| MGSDKIHHHHHHAQDNPFKPEWFVSGGINGVTALNGSANNILGGKVSGGVWLNKIIGLRVDAEAGNVWLKGGYNAVTVGAGADILVNLMKNYTDEDRKFRLNAIFGLGYNYYSFGDDYPRLSKTNTMSGNFSLQAAFRLNSHLSIFAEPGIKISTKFYDIENKDDVFAGGMMTVGVIYKF | not soluble |
| SLSPRRLRLLLVDENPTARAVIGRRLSHRHYDVTVVEDGFAAQKTLIIQPSDIILIDMDLQLLPAIGTMEKIRAAHPAGHACIVMIGGASDTPKMIAALDAGADDHIVKPFDFDMLDARLRRVHARAERVNLLSRQYAELDARIARRAMELGETRETLRQVELDRARLMASVDHLQAEVARLSAREG | soluble |
| MSLDKPRLQFSIREQVQQLLGGLAGLKNYQVPSKETIADNAYLKQMGVALDVLTKEVEKLKSDDGVSAEAMGDYLYRQVQWVNNIVPTQMDLNRLFATMNTAGIQLEQADILKAKLFKHIHTDKAQYDAMWVACEHLENYFERNVRKVFPNADWYHIEPEHLASFDAERFAAKDETSEALSGLSIAELASQVKASSIPDNTEQEKFETYDLDVETVYCRPIIKFPLLLIHAYRVYLALNDHNDIEPRLHSDRLLEIFDPLINGDEQSVKLFIETLWQVRYQFDRWVVKWVERDDATDAQLGLTYQSRSKSNDTYYINRTQKELTDIVLLQSVRNFTGERSAQYWLTPFLSGLIRSSIKQDSVALELLENIDNKMSLSVDTQKEASFALAEGIEPNCQSWQSQSTYFAKSLGTSFEHYWFQKLEYLIWKKMKASESSLPSEELNKFKKYRITSKNSVEHVHPQNDEYNSRLDCETLNSFGNLVLLSPGENSSYSNQDVDKKRIDFERKSHFDALKLREIFGVKGQGLWGKQQIDNHLEDMMAVFAQHYKEGHHHHHH | soluble |
| MVKIRLARFGSKHNPHYRIVVTDARRKRDGKYIEKIGYYDPRKTTPDWLKVDVERARYWLSVGAQPTDTARRLLRQAGVFRQEAREGA | soluble |
| AHHHHHHGSMLKEVHELLNRIWGDIFELREELKEELKGFTVEEVSEVFNAYLYIDGKWEEMKYPHPAFAVKPGGEVGATPQGFYFVFAFPKEELSKEFIEDVIRAFEKLFIYGAENFLEDFYNFEHPISGDEVWDRIVNSDEEMINFEVDLGFDKEEVKREIKRFIELARRYNLL | soluble |
| MFDAKKLEQIAKQIHEAMPQPVKELGADVEQKVRQVIQGQLNKLDVVSREEFDVQTQVLLRTRQKLTELEQKMAELEAKLADK | not soluble |
| MGSDKIHHHHHHMRAPQAQSKLSEVLEFLQQYEGTINPNKLIFGRWIKDAQALRLVDPSEGYMMEAWVYRAQGKLDKALEYMKNAYRLDSSSSSVNVNYASLLLSSGDFNESEKLCIKRIRLDRTNTDIFKILITNTLHTFNQDALFEAIELFIPTNPEAEKVIGQAKKRIFDFDHMQSTLESANLSIEVYKRFSSITQKVRNTRYIGESRTVINCEVNELGTFLLIDEALVNASIEDCLSMYDDLVEEIINDDHYFEEYKKIIFNFIPTTSTAINSAYQLEI | not soluble |
